Tested on: RBC ghost membrane 105 kDa protein (unidentified; disulfide-linked dimer, ~210 kDa non-reduced) (Homo sapiens)
Test: filter
Settings: Scatchard on RBC ghosts, 1600 sites per cell; target assigned to 105 kDa protein by crosslinking

## AACTCAGTGGTAGGTAACGGTT [c56t]
  Kd: 4 nM
